Data taken from publication PMC10172142.

How the values were obtained:
[1] = target: CPR Wolfebacteria Fe-SodFM1, wild type (CPR Wolfebacteria (uncultured bacterial candidate phyla radiation)); test: crystal structure; sitting drop vapour diffusion at 20 °C; 100 mM sodium acetate trihydrate pH 4.5, 25% wt/vol polyethylene glycol 3350; data collected at 100 K
[2] = target: CPR Wolfebacteria Fe-SodFM1, wild type (CPR Wolfebacteria (uncultured bacterial candidate phyla radiation)); test: SEC; analytical size exclusion chromatography, Superdex 200 10/300 increase, 20 mM Tris pH 7.5, 150 mM NaCl, calibrated with molecular weight standards

stoichiometry N [1]: 2
stoichiometry N [2]: 2
Substance: CPR Wolfebacteria Fe-SodFM1, wild type (enzyme)
